Data taken from US20210070843A1.
Substitutions are numbered along the chain they refer to.

B1: P58 (antibody, V domains shown)
VH: EVQLVESGGGLVQPGGSLRLSCAASGFTIGGGGIHWVRQAPGKGLEWVAWIWPYWGYTYYADSVKGRFTISADTSKNTAYLQMNSLRAEDTAVYYCARFNSYSYSGVMDYWGQGTLVTVSS
VL: DIQMTQSPSSLSASVGDRVTITCRASQDVYSYVAWYQQKPGKAPKLLISSSRGLYSGVPSRFSGSGSGTDFTLTISSLQPEDFATYYCQQYSSFPITFGQGTKVEIKR
B2: S48 (antibody, V domains shown)
VH: EVQLVESGGGLVQPGGSLRLSCAVSGFTIGDGSIHWVRQAPGKGLEWVASIGPYGGSTYYADSVKGRFTISADTSKNTAYLQMNSLRAEDTAVYYCARFHYGYWNNMDYWGQGTLVTVSS
VL: B1 VL with Y30G, S31W, Y32W, S49Y, S50G, S51T, G53W, L78V, S92Y, F94G
B3: Do1 (antibody, V domains shown)
VH: EVQLVESGGGLVQPGGSLRLSCAASGFTIDNGSIHWVRQAPGKGLEWVAWIGPYGGFTSYADSVKGRFTISADTSKNTAYLQMNSLRAEDTAVYYCARFYGSGSSSFMDYWGQGTLVTVSS
VL: B1 VL with Y30W, S31G, Y32G, S49F, S50F, G53Y, S92Y, S93N, F94G, I96L
B4: P03 (antibody, V domains shown)
VH: EVQLVESGGGLVQPGGSLRLSCAASGFTIDSFGIHWVRQAPGKGLEWVAFIGPFGGSTFYADSVKGRFTISADTSKNTAYLQMNSLRAEDTAVYYCARFDSNSYSYHGIMDYWGQGTLVTVSS
VL: B1 VL with Y30W, S31G, S50W, R52G, G53S, S92Y, S93N, F94W, I96V
B5: P44 (antibody, V domains shown)
VH: EVQLVESGGGLVQPGGSLRLSCAASGFTIDGWWIHWVRQAPGKGLEWVAGIWPFGGFTSYADSVKGRFTISADTSKNTAYLQMNSLRAEDTAVYYCARSYSGYSGDYWGQGTLVTVSS
VL: B1 VL with Y30N, S31N, Y32N, S49Y, S50W, R52S, G53S, S92Y, S93N, I96V

Legend:
[1] = molecular target: recombinant H3N2 WN/05 HA trimer (hemagglutinin ectodomain of A/Wisconsin/67/2005) (influenza A virus A/Wisconsin/67/2005 (H3N2)); assay: ELISA, coated HA
[2] = molecular target: full-length H1 A/California/07/2009 HA expressed on 293T cells (influenza A virus A/California/07/2009 (H1N1)); assay: cell-based or functional assay
[3] = molecular target: full-length H5 A/Vietnam/1203/2004 HA expressed on 293T cells (influenza A virus A/Vietnam/1203/2004 (H5N1)); assay: cell-based or functional assay
[4] = molecular target: H7 A/Anhui/1-BALF_RG17/2013 HA on H7N9 AH/13 pseudo virus (influenza A virus A/Anhui/1-BALF_RG17/2013 (H7N9)); assay: cell-based or functional assay
[5] = molecular target: recombinant H7N9 AH/13 HA trimer (hemagglutinin ectodomain of A/Anhui/1-BALF_RG17/2013) (influenza A virus A/Anhui/1-BALF_RG17/2013 (H7N9)); assay: ELISA, coated HA
[6] = molecular target: recombinant H5N1 VN/04 HA trimer (hemagglutinin ectodomain of A/Vietnam/1203/2004) (influenza A virus A/Vietnam/1203/2004 (H5N1)); assay: ELISA, coated HA
[7] = molecular target: recombinant H1N1 CA/09 HA trimer (hemagglutinin ectodomain of A/California/07/2009) (influenza A virus A/California/07/2009 (H1N1)); assay: ELISA, coated HA
[8] = molecular target: full-length H1 A/California/07/2009 HA expressed on 293T cells (influenza A virus A/California/07/2009 (H1N1)); assay: flow cytometry, HA-expressing 293T
[9] = molecular target: full-length H5 A/Vietnam/1203/2004 HA expressed on 293T cells (influenza A virus A/Vietnam/1203/2004 (H5N1)); assay: flow cytometry, HA-expressing 293T
[10] = molecular target: cell surface-expressed H3N2 WN/05 HA trimer (influenza A virus A/Wisconsin/67/2005 (H3N2)); assay: flow cytometry, HA-expressing 293T
[11] = molecular target: cell surface-expressed H3N2 WN/05 HA trimer (influenza A virus A/Wisconsin/67/2005 (H3N2)); assay: cell-based or functional assay

| Molecule | EC50 [1] [µg/mL] | IC50 of pseudo virus neutralization H1N1 CA/09 [2] [µg/mL] | IC50 of true virus neutralization H1N1 CA/09 [2] [µg/mL] | IC50 of pseudo virus neutralization H5N1 VN/04 [3] [µg/mL] | IC50 of pseudo virus neutralization H7N9 AH/13 [4] [µg/mL] | EC50 [5] [µg/mL] | EC50 [6] [µg/mL] | EC50 [7] [µg/mL] | EC50 [8] [µg/mL] | max. MFI [8] [MFI] | max. MFI [9] [MFI] | EC50 [10] [µg/mL] | max. MFI [10] [MFI] | IC50 of pseudo virus neutralization H3N2 WN/05 [11] [µg/mL] | EC50 [9] [µg/mL] |
| --- | --- | --- | --- | --- | --- | --- | --- | --- | --- | --- | --- | --- | --- | --- | --- |
| C05 (antibody) | 0.00844 |  |  |  |  |  |  |  |  |  |  |  |  |  |  |
| FI6V3 (antibody) | 0.0789 | 0.0213 | 9.21 | 0.013 | 0.051 | 0.314 | 0.00648 | 0.0107 | 0.067 | 10100 | 13700 | 0.065 | 16600 |  |  |
| CR8020 (antibody) | 0.0194 | > 100 | > 500 | > 200 | 0.052 |  |  |  |  | 91 | 639 | 0.569 | 18000 | 0.0477 |  |
| F10 (antibody) |  | 0.0119 | 1.26 | 0.012 | > 200 |  | 0.021 | 0.0121 | 1.05 | 9530 | 10500 |  | 220 |  |  |
| B1 |  | > 100 | > 500 | > 200 | > 200 | 0.504 | > 10 |  | 0.25 | 6290 | 6710 | 3.58 | 697 | > 20 | 0.366 |
| B2 |  | > 100 | > 500 | > 200 | > 200 |  | 0.0737 |  | 4.86 | 6240 | 875 |  | 122 | > 20 | 1.92 |
| B3 |  | > 100 | > 500 | > 200 | > 200 |  | > 10 |  |  | 228 | 313 |  | 278 | > 20 |  |
| B4 |  | > 100 | > 500 | > 200 | > 200 |  | > 10 |  | 0.494 | 6020 | 216 |  | 147 | > 20 |  |
| B5 |  | > 100 | > 500 | > 200 | > 200 | 0.163 | 0.1 |  | 0.466 | 8480 | 188 |  | 127 | > 20 |  |
